As a reminder, the Kd is the equilibrium constant for the complex coming apart. A word on the EC50 (read off the curve): it is the concentration that produces a half-maximal response. The low end stands for an effect from little substance, the high end for a need for much substance.

The target in test [1] is EGFRwt ECD antigen (His-tagged, captured with anti-His) (human, UniProt P00533 25-645). The test can be described thus: SPR, ECD antigen captured with anti-His, single injection of antibody at 500 nM. Background: In SPR one partner is held on a chip, and binding of the other changes the refractive index at the surface.
Test [2] addresses T1, EGFRvIII-ECD avi his (human).
T1 construct: Extracellular domain of human EGFRvIII fused to an Avi-tag and a His-tag at the C-terminus; the entry is the whole construct; also called recombinant EGFRvIII; EGFRvIII antigen
The test is described as above.

The target of test [3] is T1, EGFRvIII-ECD avi his. The test can be described thus: SPR, PGLALA IgG captured with anti-PGLALA antibody, EGFRvIII-ECD avi his as analyte, 1:1 Langmuir, 25° C.
In test [4] the target is T2, EGFRvIII expressed on the cell surface (CHO-EGFRvIII, DK-MG, U87MG-EGFRvIII cells) (human, UniProt P00533 298-1210).
T2 construct: The cell line of each result is named under assay; Species is stated for the U87 transfectant (human EGFRvIII protein) and the entry; also called EGFRvIII positive cells
The test can be described thus: flow cytometry on U87MG-EGFRvIII cells, IgG PGLALA. A general note: In flow cytometry, cells or beads pass a laser one at a time.

Test [5] concerns the target T3, recombinant TYRP1 (Sino Biologicals) (human, UniProt P17643 25-477, limits assumed).
T3 construct: Bought protein; also called human TYRP1
The test can be described thus: SPR, relative active concentration as for CD3, with recombinant TYRP1 (Sino Biologicals) as antigen; sample: 14d pH 6.0, 40°C.

Test [6] addresses T3, recombinant TYRP1 (Sino Biologicals). The test can be described thus: SPR, relative active concentration as for CD3, with recombinant TYRP1 (Sino Biologicals) as antigen; sample: unstressed.
For test [7] the target is unchanged. The test can be described thus: SPR, relative active concentration as for CD3, with recombinant TYRP1 (Sino Biologicals) as antigen; sample: 14d pH 7.4, 37°C.
Test [8] deals with T4, heterodimer of human CD3 delta and CD3 epsilon ectodomains fused to a human Fc domain with knob-into-hole … (human).
T4 construct: Each entry is the whole fusion chain (ectodomain, stalk, Fc, Avi-tag); also called recombinant CD3; recombinant human CD3
The test can be described thus: SPR, relative active concentration after stress.

For test [9], the target named is T5, human CD3 expressed on Jurkat NFAT reporter cells (human, UniProt P07766 23-207).
T5 construct: CD3 complex on cells; also called CD3 on Jurkat cells; CD3 expressing cells
T5 sequence (P07766 23-207 limits assumed): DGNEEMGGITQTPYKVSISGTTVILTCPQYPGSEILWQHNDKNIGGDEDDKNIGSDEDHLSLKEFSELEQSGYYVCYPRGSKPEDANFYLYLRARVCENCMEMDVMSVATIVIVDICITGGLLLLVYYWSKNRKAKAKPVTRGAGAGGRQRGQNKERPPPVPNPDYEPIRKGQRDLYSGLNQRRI
The test can be described thus: flow cytometry on Jurkat NFAT cells, PE-labelled anti-human Fc secondary antibody.

B1: EGFRvIII antibody P064.078 IgG1 PGLALA (antibody, V domains shown)
VH: EVQLVQSGAEVKKPGESLKISCKGSGYSFDSYWIAWVRQMPGKGLEWMGVIHPYDSDTRYSPSFQGQVTISADKSISTAYLQWSSLKASDTAMYYCARVSRLSYALDYWGQGTLVTVSS
VL: not shown
notes: Anti-EGFRvIII PGLALA IgG (human IgG1)
B1: the response units in [1] was over 5 RU; with EGFRvIII-ECD avi his [2], over 50 RU. In the test with EGFRvIII-ECD avi his [3], this molecule yielded a Kd of 15 nM. Further, the “EC50 (read off the curve)” value in test [4] was about 3 nM.

B2: EGFRvIII antibody P065.036 IgG1 PGLALA (antibody, V domains shown)
VH: EVQLVQSGAEVKKPGESLKISCKGSGYSFDSYWIAWVRQMPGKGLEWMGVIHPYDSDTRYSPSFQGQVTISADKSISTAYLQWSSLKASDTAMYYCARVSRSSYALDYWGQGTLVTVSS
VL: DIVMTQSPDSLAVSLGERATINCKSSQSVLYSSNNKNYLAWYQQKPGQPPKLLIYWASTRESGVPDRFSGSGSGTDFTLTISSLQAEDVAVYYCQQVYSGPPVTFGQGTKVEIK
notes: as for B1
Turning to B2, the response units is over 5 RU in test [1] and over 50 RU with EGFRvIII-ECD avi his [2]. Moreover, binding with EGFRvIII-ECD avi his [3] was characterised by a dissociation constant (Kd) of 10 nM.

B3: TYRP1 IgG (antibody, V domains shown)
VH: QVQLVQSGAEVKKPGASVKVSCKASGFNIKDYFLHWVRQAPGQGLEWMGWINPDNGNTVYAQKFQGRVTMTADTSTSTVYMELSSLRSEDTAVYYCTRRDYTYEKAALDYWGQGTLVTVSS
VL: DIQMTQSPSSLSASVGDRVTITCRASGNIYNYLAWYQQKPGKVPKLLIYDAKTLADGVPSRFSGSGSGTDFTLTISSLQPEDVATYYCQHFWSLPFTFGQGTKLEIK
notes: IgG format; constant regions not specified
In the case of B3, the “Tyrp1 Binding Activity (%)” value in [5] came out at 97%; in [6], 100%; in [7], 101%.

B4: CD3opt human IgG1 PGLALA (antibody, V domains shown)
VH: EVQLLESGGGLVQPGGSLRLSCAASGFQFSSYAMNWVRQAPGKGLEWVSRIRSKYNNYATYYADSVKGRFTISRDDSKNTLYLQMNSLRAEDTAVYYCVRHTTFPSSYVSYYGYWGQGTLVTVSS
VL: QAVVTQEPSLTVSPGGTVTLTCGSSTGAVTTSNYANWVQEKPGQAFRGLIGGTNKRAPGTPARFSGSLLGGKAALTLSGAQPEDEAEYYCALWYSNLWVFGGGTKLTVLR
notes: Human IgG1 format with P329G L234A L235A (PGLALA); also called CD3opt IgG PGLALA
As to B4, in [8], the “binding activity to CD3 after 2 weeks at pH 7.4, 37° C., relative to 2 weeks at pH 6, -80° C.” value was over 90%. Further, in test [9], the “EC50 (read off the curve)” value is about 0.5 nM.

B5: CD3orig human IgG1 PGLALA (antibody, V domains shown)
VH: not shown
VL: QAVVTQEPSLTVSPGGTVTLTCGSSTGAVTTSNYANWVQEKPGQAFRGLIGGTNKRAPGTPARFSGSLLGGKAALTLSGAQPEDEAEYYCALWYSNLWVFGGGTKLTVLR
notes: Human IgG1 format with P329G L234A L235A (PGLALA) in the Fc by the text; also called CD3orig IgG PGLALA
B5: in test [9], the “EC50 (read off the curve)” value was about 0.8 nM.

Source of the values: patent publication US20200270347A1 (Hoffmann-La Roche, published 2020).
